Paper PMC11938259, “Heme delivery into soluble guanylyl cyclase requires a heme redox change and is regulated by NO and Hsp90 by distinct mechanisms” (The Journal of Biological Chemistry, 2025)

Biological target: FlAsH-labeled TC-apo-sGCβ (rat sGCβ(1–385) with a TC motif) (rat, UniProt P20595 1-385, TC motif (CCPGCC) inserted at residue 239 to 244, FlAsH dye bound to the tetra-Cys (TC) motif; heme-free (apo))
Assay: cell-based or functional assay

Chain of FlAsH-labeled TC-apo-sGCβ (rat sGCβ(1–385) with a TC motif) (P20595 other isoform, or with tags, fused parts or gaps TC motif (CCPGCC) inserted at residue 239 to 244): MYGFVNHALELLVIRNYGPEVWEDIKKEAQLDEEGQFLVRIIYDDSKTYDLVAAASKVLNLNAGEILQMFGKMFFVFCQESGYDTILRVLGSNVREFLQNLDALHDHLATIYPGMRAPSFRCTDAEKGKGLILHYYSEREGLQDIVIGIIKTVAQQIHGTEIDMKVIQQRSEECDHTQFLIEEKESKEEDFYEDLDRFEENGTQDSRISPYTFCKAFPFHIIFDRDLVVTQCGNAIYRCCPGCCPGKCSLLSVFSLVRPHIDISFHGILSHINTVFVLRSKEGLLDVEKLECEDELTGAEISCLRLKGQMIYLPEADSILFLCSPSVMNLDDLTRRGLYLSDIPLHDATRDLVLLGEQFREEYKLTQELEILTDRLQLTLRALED

B1: glyceraldehyde 3-phosphate dehydrogenase (GAPDH), human (enzyme)
chain: not shown
With B1 the “heme transfer (FlAsH fluorescence kinetics) from the GAPDH–heme complex to a preformed complex of GAPDH bound on FlAsH-TC-apo-sGCβ, against FlAsH-TC-apo-sGCβ alone (Fig. S4)” value was 5 fold slower.
